Data from patent US20260234222A1 (LEYDEN LABORATORIES B V, published 2026).
Read-outs that look alike come from different tables or passages of the source.

T1: MERS-CoV Spike antigen (MERS-CoV, UniProt K9N5Q8 18-1291)
T1 sequence: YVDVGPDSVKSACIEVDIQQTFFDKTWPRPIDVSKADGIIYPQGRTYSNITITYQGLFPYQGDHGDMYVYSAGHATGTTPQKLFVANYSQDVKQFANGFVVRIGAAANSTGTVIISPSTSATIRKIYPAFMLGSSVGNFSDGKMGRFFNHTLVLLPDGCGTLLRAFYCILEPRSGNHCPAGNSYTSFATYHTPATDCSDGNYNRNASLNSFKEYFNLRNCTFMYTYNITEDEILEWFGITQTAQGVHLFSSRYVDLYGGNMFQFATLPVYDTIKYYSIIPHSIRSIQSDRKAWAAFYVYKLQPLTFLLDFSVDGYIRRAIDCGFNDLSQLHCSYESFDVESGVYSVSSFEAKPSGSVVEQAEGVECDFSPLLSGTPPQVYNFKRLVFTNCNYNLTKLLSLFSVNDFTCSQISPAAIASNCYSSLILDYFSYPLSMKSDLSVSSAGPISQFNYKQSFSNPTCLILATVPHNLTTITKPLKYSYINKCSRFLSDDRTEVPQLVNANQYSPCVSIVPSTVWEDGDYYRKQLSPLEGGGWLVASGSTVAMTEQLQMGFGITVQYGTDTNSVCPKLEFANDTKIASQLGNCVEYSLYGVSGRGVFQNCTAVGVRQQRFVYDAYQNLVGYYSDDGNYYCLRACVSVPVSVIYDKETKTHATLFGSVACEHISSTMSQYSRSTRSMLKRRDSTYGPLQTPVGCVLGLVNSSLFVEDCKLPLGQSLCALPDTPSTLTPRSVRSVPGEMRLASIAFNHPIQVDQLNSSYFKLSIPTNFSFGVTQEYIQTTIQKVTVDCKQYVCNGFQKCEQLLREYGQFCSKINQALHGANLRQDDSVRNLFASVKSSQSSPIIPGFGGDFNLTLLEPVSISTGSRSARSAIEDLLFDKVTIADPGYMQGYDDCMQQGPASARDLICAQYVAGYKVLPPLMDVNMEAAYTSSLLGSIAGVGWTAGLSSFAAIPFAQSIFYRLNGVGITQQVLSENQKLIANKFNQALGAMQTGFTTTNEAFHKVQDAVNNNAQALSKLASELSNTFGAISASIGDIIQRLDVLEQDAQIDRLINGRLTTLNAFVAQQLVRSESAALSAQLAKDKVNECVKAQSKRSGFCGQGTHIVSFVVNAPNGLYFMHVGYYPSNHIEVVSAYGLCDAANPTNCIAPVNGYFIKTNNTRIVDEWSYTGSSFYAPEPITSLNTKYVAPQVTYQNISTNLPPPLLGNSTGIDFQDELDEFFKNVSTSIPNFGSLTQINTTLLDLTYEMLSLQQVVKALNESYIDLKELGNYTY

T2: hCoV-NL63 Spike antigen (hCoV-NL63, UniProt Q6Q1S2 19-1291)
T2 sequence: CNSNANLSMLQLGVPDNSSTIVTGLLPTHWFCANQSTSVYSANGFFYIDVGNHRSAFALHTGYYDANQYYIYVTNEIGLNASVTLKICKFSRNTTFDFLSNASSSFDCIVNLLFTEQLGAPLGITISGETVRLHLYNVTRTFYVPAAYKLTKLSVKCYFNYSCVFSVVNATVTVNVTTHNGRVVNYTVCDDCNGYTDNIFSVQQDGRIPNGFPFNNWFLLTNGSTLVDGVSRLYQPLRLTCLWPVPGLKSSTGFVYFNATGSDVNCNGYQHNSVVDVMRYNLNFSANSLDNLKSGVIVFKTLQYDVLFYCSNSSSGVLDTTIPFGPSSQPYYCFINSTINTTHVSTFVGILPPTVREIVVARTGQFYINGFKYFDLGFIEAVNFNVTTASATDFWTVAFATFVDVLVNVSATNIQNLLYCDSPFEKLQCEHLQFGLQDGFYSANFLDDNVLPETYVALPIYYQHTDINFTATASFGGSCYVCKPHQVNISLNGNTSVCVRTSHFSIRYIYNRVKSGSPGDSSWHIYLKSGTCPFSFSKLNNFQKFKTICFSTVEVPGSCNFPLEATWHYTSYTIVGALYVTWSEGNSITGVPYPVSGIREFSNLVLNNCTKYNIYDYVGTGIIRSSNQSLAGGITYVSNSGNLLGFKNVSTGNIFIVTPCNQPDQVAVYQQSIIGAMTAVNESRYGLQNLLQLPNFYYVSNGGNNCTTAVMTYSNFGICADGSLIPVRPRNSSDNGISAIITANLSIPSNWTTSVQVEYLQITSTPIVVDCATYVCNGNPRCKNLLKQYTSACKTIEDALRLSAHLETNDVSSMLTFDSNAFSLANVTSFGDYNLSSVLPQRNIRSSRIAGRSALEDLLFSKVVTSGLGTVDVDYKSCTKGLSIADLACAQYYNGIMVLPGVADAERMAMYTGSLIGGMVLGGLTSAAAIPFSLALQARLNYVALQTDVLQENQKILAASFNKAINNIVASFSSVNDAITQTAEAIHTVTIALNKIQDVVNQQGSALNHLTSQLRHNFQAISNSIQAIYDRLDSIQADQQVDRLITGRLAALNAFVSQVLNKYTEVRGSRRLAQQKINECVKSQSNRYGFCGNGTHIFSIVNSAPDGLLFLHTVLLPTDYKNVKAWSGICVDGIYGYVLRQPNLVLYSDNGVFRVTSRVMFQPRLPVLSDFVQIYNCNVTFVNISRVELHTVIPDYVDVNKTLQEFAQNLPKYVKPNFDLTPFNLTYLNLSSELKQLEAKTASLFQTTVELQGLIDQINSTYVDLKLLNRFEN

B1: Parental mAb 1 (antibody, V domains shown)
VH: QEQLVQSGAEVKKPGASVKVSCKSSGFTFSYFYLHWVRQAPGQGLEWMGIINPRGDGTRYAQKFQGRVTMTRDASTGTLYMELRSLRSEDTAVYYCARGADHGAFDIWGQGTMVTVSS
VL: EIVLTQSPGTLSLSPGERATLSCRASQSVRRNYFAWYQQKRGQAPRLLIYDASTRATGIPDRFSGSGSGTDFTLTISRLEPEDFAVYYCQQYDSSPPMYIFGQGTKLEIK
notes: also called antibody according to the invention; first parental antibody
B2: Parental mAb 2 (antibody, V domains shown)
VH: QMQLMQSGAEVKKPGASVTVSCKASGDTFSDYRIHWVRQAPGQGLEWMGRMNPKSGDTNFAQKFQGRVTMTRDMSINTAYMTLSGLTFDDTALYYCASLLIVGGFDPLDDFEVWGQGTMVTISS
VL: QSALTQPPSASGSPGQSVTISCSGTSSDVGGYNFVSWYQHHPGKAPKILIYEVTKRPSGVPDRFSGSKSGNTASLTVSGLQAEDEADYYCSSYGGTNNLLFGGGTKLTVL
B3: Bispecific 1 (bispecific antibody)
heavy 1: not shown
light 1: EIVLTQSPGTLSLSPGERATLSCRASQSVRRNYFAWYQQKRGQAPRLLIYDASTRATGIPDRFSGSGSGTDFTLTISRLEPEDFAVYYCQQYDSSPPMYIFGQGTKLEIKSSASTKGPSVFPLAPSSKSTSGGTAALGCLVKDYFPEPVTVSWNSGALTSGVHTFPAVLQSSGLYSLSSVVTVPSSSLGTQTYICNVNHKPSNTKVDKKVEPKSC
heavy 2: not shown
light 2: QSALTQPPSASGSPGQSVTISCSGTSSDVGGYNFVSWYQHHPGKAPKILIYEVTKRPSGVPDRFSGSKSGNTASLTVSGLQAEDEADYYCSSYGGTNNLLFGGGTKLTVLGQPKAAPSVTLFPPSSEELQANKATLVCLISDFYPGAVTVAWKADSSPVKAGVETTTPSKQSNNKYAASSYLSLTPEQWKSHRSYSCQVTHEGSTVEKTVAPTECS

How the values were obtained:
SARS-CoV-2 Spike antigen [1] = target: T3, SARS-CoV-2 Spike antigen (SARS-CoV-2, UniProt P0DTC2 14-1208); assay: cell-based or functional assay
SARS-CoV-1 Spike antigen [2] = target: T4, SARS-CoV-1 Spike antigen (SARS-CoV-1, UniProt P59594 14-1190); assay: cell-based or functional assay
MERS-CoV Spike antigen [3] = target: T1, MERS-CoV Spike antigen; assay: cell-based or functional assay
SARS-CoV-2 Spike antigen [4] = target: T3, SARS-CoV-2 Spike antigen; assay: cell-based or functional assay; remark: listed apart in the source
SARS-CoV-1 Spike antigen [5] = target: T4, SARS-CoV-1 Spike antigen; assay: cell-based or functional assay; remark: listed apart in the source
hCoV-NL63 Spike antigen [6] = target: T2, hCoV-NL63 Spike antigen; assay: cell-based or functional assay
SARS-CoV-2 Spike antigen [7] = target: T3, SARS-CoV-2 Spike antigen; assay: cell-based or functional assay; remark: listed apart in the source
SARS-CoV-1 Spike antigen [8] = target: T4, SARS-CoV-1 Spike antigen; assay: cell-based or functional assay; remark: listed apart in the source
MERS-CoV Spike antigen [9] = target: T1, MERS-CoV Spike antigen; assay: cell-based or functional assay; remark: listed apart in the source
SARS-CoV-2 Spike antigen [10] = target: T3, SARS-CoV-2 Spike antigen; assay: cell-based or functional assay; remark: listed apart in the source
hCoV-NL63 Spike antigen [11] = target: T2, hCoV-NL63 Spike antigen; assay: ELISA, Spike antigen coated on plate

Row | Binder | Live virus neutralization IC50 (SARS-CoV-2 Spike antigen [1]) | Live virus neutralization IC50 (SARS-CoV-1 Spike antigen [2]) | Live virus neutralization IC50 (MERS-CoV Spike antigen [3]) | Pseudovirion neutralization IC50 (SARS-CoV-2 Spike antigen [4]) | Pseudovirion neutralization IC50 (SARS-CoV-1 Spike antigen [5]) | Pseudovirion neutralization IC50 (hCoV-NL63 Spike antigen [6]) | Live virus neutralization IC50 (SARS-CoV-2 Spike antigen [7]) | Live virus neutralization IC50 (SARS-CoV-1 Spike antigen [8]) | Live virus neutralization IC50 (MERS-CoV Spike antigen [9]) | Pseudovirion neutralization IC50 (SARS-CoV-2 Spike antigen [10]) | binding result (hCoV-NL63 Spike antigen [11])
1 | B1 | 9.87 µg/mL | 2.73 µg/mL | 1.49 µg/mL | 0.072 µg/mL | 0.588 µg/mL | > 250 µg/mL | 6.44 µg/mL | 4.18 µg/mL | 0.86 µg/mL | 0.072 µg/mL | no binding (tested: 10.0-0.000002 nM)
2 | B2 | – | – | – | – | – | – | – | 5.94 µg/mL | 11.6 µg/mL | – | –
3 | B3 | – | – | – | – | – | – | – | 6.67 µg/mL | 1.32 µg/mL | – | –
